Results as given in patent publication US20080292628A1.

Biological target: human VEGF (human) (UniProt P15692)
Assay: cell-based or functional assay

UniProt P15692, sequence (P15692 other isoform, or with tags, fused parts or gaps limits assumed): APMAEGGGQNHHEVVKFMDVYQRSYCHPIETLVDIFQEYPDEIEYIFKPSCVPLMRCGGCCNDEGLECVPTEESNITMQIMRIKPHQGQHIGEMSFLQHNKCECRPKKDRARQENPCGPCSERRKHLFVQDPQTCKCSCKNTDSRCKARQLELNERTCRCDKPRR

- EC50, inhibition of VEGF (10 ng/ml) dependent HUVE cell proliferation: 0.015 µg/mL
Substance: VEGFR1-Fc-IL-1ra (Fc fusion)
